As a reminder, the IC50 is the concentration that inhibits the measured activity by half. A lower IC50 goes with greater potency in that assay.

Numbering of substitutions follows the chain as printed.

To fix the notation:
B1: sFes^4, superbinder Fes SH2 domain variant (designed binder)
chain: MKIEEHHHHHHSSGKLGLNDIFEAQKIEWHESSGEDLYFQSGTTMDDYKDDDDKGGSEVQKPLHEQLWYHGAIPRAEVAELLVHSGDFLVRESQGRKVYVLSVLWDGLPRHFIIQSLDNLYRLEGEGFPSIPLLIDHLLSTQQPLTKKSGVVLHRAVPSR
B2: sFes^2, superbinder Fes SH2 domain variant (designed binder)
chain: B1 chain with S93R, G95R, R96K, K97Q, V98E
B3: sFes^1 (SuperFes), superbinder Fes SH2 domain variant (designed binder)
chain: B1 chain with S93G, G95S, R96Q, K97P, V98D
B4: sFes^6, superbinder Fes SH2 domain variant (designed binder)
chain: B1 chain with L89I, G95T, R96Y, K97P, V98G
B5: sFes^5, superbinder Fes SH2 domain variant (designed binder)
chain: B1 chain with Q94I, G95S, R96K, K97Q, V98G, I113L
B6: sFes^3, superbinder Fes SH2 domain variant (designed binder)
chain: B1 chain with Q94P, G95R, R96I, K97Q, V98E

The target in the first test is pTyr-containing peptide (pEZ) derived from Ezrin, PPV{pTyr}EPVS. In words: fluorescence polarization; fold change over wt Fes SH2. A general note: Fluorescence polarisation rises when a labelled molecule tumbles more slowly, as on binding a larger partner.
Take B1: the Fold Change came out at 77 fold.
The same measure, in the same setting: for B2 the value was 344 fold.
Regarding B3, the Fold Change is 493 fold.
The molecule B4 displayed a Fold Change of 28 fold.
Same read-out and setting: in the case of B5 it was 33.8 fold; in that of B6, 95.9 fold.

For the next test the target is unchanged. In words: phage ELISA, phage-displayed clone on immobilized peptide. In general terms: ELISA stands for enzyme-linked immunosorbent assay.
Molecule B1 displayed a binding signal for pEZ over that for the unphosphorylated peptide EZ of 10 fold.
Same read-out and setting: for B2 the value was 10 fold; for B3, 10 fold.
In the case of B4, the binding signal for pEZ over that for the unphosphorylated peptide EZ is 10 fold.
Same read-out and setting: in the case of B5 it was 10 fold; in that of B6, 10 fold.

The next test has the same target. As to the kind of experiment: fluorescence polarization, purified SH2 domain with fluorescein-labelled ezrin phosphopeptide.
In turn, B1 gave an IC50 of 17.4 nM. In other words, the double-digit nanomolar range.
Take B2: the IC50 was determined as 3.9 nM.
The same measure, in the same setting: in the case of B3 it was 2.7 nM; in that of B4, 48 nM.
Still for that read-out and setting: for B5 the value was 39.7 nM; for B6, 14 nM.

These data come from patent US20260055143A1, “HIGH AFFINITY VARIANTS OF SH2 DOMAINS” (Axoiya Inc., priority 2023, published 2026).
